Target: biotinylated, tyrosine-phosphorylated CLEC-2 alanine substitution mutant peptide (2–5 Ala)
Assay: SPR

Row | fold decrease in affinity against the wild type peptide [fold] | Substance
1 | 3 | GST-tagged recombinant Syk tandem SH2 domains (both SH2 domains with the linker region) (domain or fragment)
2 | 4 | GST-tagged recombinant Syk C-terminal SH2 domain (domain or fragment)

From article PMC3576117
